In the domain aggregation screens of Martell et al. (2025):

Test: soluble fraction after stress (log2 fold change); higher = more stays soluble; pooled small domains, quantitative proteomics
Settings: stress: pH 4
How it was run: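 After pH 4 stress, pooled custom libraries of small protein domains were quantified with high-throughput quantitative proteomics. Aggregation propensity is taken from the fold change in each domain's soluble amount following the acid stress. The scale is log2, where higher values mean more stayed soluble.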

| Sequence | soluble fraction (log2) |
| --- | --- |
| HMMKLSKRQEQIIAVVKEHQPVSGERISDILAVSRATLRSDLSFLTLSGILKASPKVGYTYES | ≥ 0.43 |
| HMVQVRQPAGAGDLFAKGRLHLSTGTIHTVKPLEVDLPKGRLTVVTGVSGSGKTTLILESLLPALAAAAA | 0.307 |
| HMNVVDTGTDANYRVKISAVNLNMRLGPSTSYKSKGYITPGNYTIIKTSGDWGKVKETGYWVALKYTSKIN | 0.175 |
| HMDFMNSEIKKIVEDLKLTLQSLNYTKNEIKSILPVINKETDNLIKKEKYASFENLLRLAMNHLDNN | -0.929 |
| HMTAIWKTITATLTHDIATGKYAPGDRLPTEAQLAARFGVNRHTVRRAISDMNESGLTYSRRGAGVFVAQ | ≥ 0.43 |
| HMNYDPEEKITQIRTMLEIHSRIEFNEIITPATRRGEIIIIFLALLHMIKRGYIVVRQHRLFGDITIFARD | 0.22 |
| HMARLAGVDLPREKRIEIGLTYIYGIGLARSQEILKKAGINPDIRVKDLTDEQEQAIRNAMDGYIVEGDL | -0.0746 |
| HMKRREENLRRLALSTAERVKRKGKKEILNPMSPQERRIIHLTLQNNKEVVTHSEGEDPYRRVIISPRN | 0.311 |
| HMKKYIEIYNYYKQLIESEQLKSGDKMPSVRKATKIFNVSKTTVQNAYFDLQADGYIIAAPKSGYYVTEM | -0.7 |
| HMASQEESVATYIQDYYRNPKTGESMVSDDMVEEFYKTHPEWEDQADGSKEGMEAVLDNFNEFFEINYG | -0.136 |
| HMLRIIDYNRVVKDLNGLTPEQLLEKLAESFTVEDKGTEEYRPTELHNFSMYLGGHWYSLTAKPGTYDDND | -0.926 |
| HMAQRFDLGDKLNPQSSEFEYLGTSSRTGVSTYRYKNVPTQLFFGRQIGDIVVGVRRGMITLTIYNL | 0.146 |
| HMVYFDDEELDRFAGRAADSYTSDETDEFRDVMLTLLPADVMPWTQSIEMRGILLPEQLRDELLML | -1.26 |
| HMSDNLTIVRAVYSGLSQRQAAATYHVSRNTVSLLLRHARNRGWLTLEDLAQLDNAAFSKSL | 0.354 |
| HMDYNSYGLTERELELVDYVLKGYSRKEMAEASGLKVNTIGSYMKKIYRKLNIHNRTELKERFI | -1.31 |
| HMTELSLSEQAYQQLRRMIVRLDFAPGDVLREEALQEALGMSRTPIREALQRLAREHFVTVIPRRGMFVS | -1.22 |
| HMNLDYKQFQVFNNIETLNTFTNLLSDNKIDFEVENNSKIFDPSFANNDFEKEYIVKIHPNDFEKVY | -1.32 |
| HMIPESVQGIEEFLATGALKGIGKKTAAAIVHKFGKDTLRIMEEEPERLAEVSGIGEKKAAAIGEAFALH | -0.236 |
| HMPDFLAELAARMERDAVTEAQIRQVVAQKGHYPEEVSPAQYHPDFFRQWLFPHWEKIVDVIRSSPEYTP | -0.539 |
| HMGVSLNELAYRRFKQALVTLSYKPGEYLNTAQVMNDLDMGRTPINQAIHRLANEGLLQVIPRKGVMVS | 0.026 |
| HMEELELTIDGEMVGRIDKQLGHHFDQFSRSQIQHWIEDGHVLVNGKQVKPKYKLLVGDHVQIIPEEPQK | 0.223 |
| HMNIIHNPSKNFIESDLNDLKEGMEIEHKKFGYGLIKSIDKTQNHQKAVVNFKLVGEKTLLLSFARLRIV | -0.519 |
| HMQKITPDNWTYIRSLIRQKWSPDQIDQWLKKHPDVGFTVSRETIYQYVKEDRQKDGDLYLSLRRAGKSY | -1.11 |
| HMSISDEDFAKLLDFVKEKWDAGELDNAEDIKAAISEGEKEFGVSLDESTRTTLASALQQLN | -0.496 |
| HMAKPVKSPLPGSVIKVAVKVGQQIKRGDLLLTLESMKMENSILAEKDGVVKNIHVQAGQSVMQDDLLLDI | -0.957 |

| Sequence | soluble fraction (log2) |
| --- | --- |
| HMGTVISVDKARSIALAKVPGASANDIRIHLDRDDGRQIYEGEIYYNRMEYEFEIDASTGTIIEWSAEHW | 0.00283 |
| HMIEEIAVPEILGMQEEEAKAKIEGLGLVFNVTDRVKSNEYEKGEVMYQSVGPDDTTVKSGYPINVTISEG | -0.162 |
| HMAVENTGLSKRELEILQMMARGMSNQEIGDALFISLSTVKTHVASIFSKLQAVRRTQAVGIAKSLKII | -0.367 |
| HMIFSIIPGQIRLTKMEIADGYLVLYGFTPSKEIYNLHLNPALKSIFTSSETSFIPVSGGLKFMSTNKL | -0.442 |
| HMFKDVTVPSVINKTEAEATNMLKGLNLVVSVEYEENANKSDGIVTAQNVNANKVIKEGETVTITVNKQP | 0.22 |
| HMRKIEDVLRLHAQGMSTRRIALATGVGKTTVIEYLRRAAVAGLSWPLPEGLDEEALERRVFPPPP | 0.282 |
| HMSDYYEVLGVTRQADAEEIKRAYRRKARQLHPDVAGPGHEEEFKEVTVAYEVLSDPEKRQAYDLGGQDAL | 0.0614 |
| HMDTERLYAYAWQTHLKQFGLNISEEEIRQFVGVDDRIVHSFYAKTVPLDDFENTMFSLGEIIQQSL | -2.08 |
| HMSNPADDVVDLLRQLRLPHMRAAAPELLATAKAQRWDPAEAIRALLTEELAGRQASSINARRK | -0.226 |
| HMVPEMIRDVISKSIRDMGVLPDHMQINERIALIQSLKKQQILGIKGAVAETARQLGISVPTVYRYMKKG | -0.125 |
| HMDYKSKLQELVQTEKRTVEYKLVDESGPAHNKSFTFEVVISGIKYGSGTGASKKIAEQNAAKEALEKLA | 0.144 |
| HMVEDIVLTDAQIEFVKQQAKNGLSAFQISEMIWPEMSVKRFSKQHVAVLDFLREYEPAYVHDSE | -1.85 |
| HMYITGAVIRKLREKNNITQLQLAERLRVSDKTISKWETGKGYPDITLLEPIAKTFSVSVTELISGDI | -0.84 |
| HMFPELNAEETQVVQLLQKQTEGMQVNSLVVESNIPITRMSGILFELELKGIIRNYAGGVYKL | -0.951 |
| HMLDIQKKGENIAYIEGAGDVIPESLKQIGYHVVTIAPKDINAETLSRFDAVVVGIRAYNTVEDL | -0.241 |
| HMSFGWESLENKEGVADTDLHPSGWVRIEDSRIFVVSEGDFINKGSKVTVLTVDGNRVVVRELI | -1.79 |
| HMEDPFLWVEKLGSSDWIEREESAEKLLEAGEASVEALRTALTHPDLEVRERVRELLSVISPL | -1.82 |
| HMGSIGAMLSSPELYGKLATNPATRGFLSQPDFIAMLTDVQKNPDKFGSYMSDPRMMQVLSVALG | -0.103 |
| HMHPQISVEGVLPLKEAVEFVEREIISHAYSRYRATREVARHLGIDPSTVLRKAAKYGITVEPGKN | -0.372 |
| HMGKPVTMELLIPYSQGSLVHRISEAGEVAKTEYQNDGTYMQVTFTPSAKDHALMQEVASYRI | 0.0901 |
| HMETVSFNPDIAVIPDYRHVVILGETTKTIANKYDIPVDILKAANPGLGNNVTKGDRLRVPDKTKLQ | -0.0151 |
| HMSDESALLELVKQIIADNPKAVEEIRAGKEKAMGFLIGQAMKASRGSANPQIISRLVREQLG | 0.0495 |
| HMNDELMEQIDEWHKAEKHQEIIDALEQIPEAERDFETTGFLARAYNNIEEYAKAADLLESVRE | -1.51 |
| HMFDLKKIYGTILDETKSSLLLSTDDGREVQIIKTDGTEVLASGLGVYVEVAYRDETPDGYPIALTI | -0.298 |
| HMILKNVTSDLANKRLDKVASILFQTYSRTQIKKWILEGRVLVNGEISNPKDHVHENDEIEINPI | ≥ 0.43 |

| Sequence | soluble fraction (log2) |
| --- | --- |
| HMSQDTLIGRVGVIVIGQARTGSPAQVRVKDGFGQTHYVMAEPDSEGVLKQGEAVLLVSLEGNTFKAILNP | ≥ 0.43 |
| HMGFEALRSRHRITAREMEVLQHMLAGRSNAEIGHTLGLSERTVKTHITSIFNKLGVDSRAQLGYMLK | 0.366 |
| HMIDLSELINKTGSAYTNLRPSGTAVIGDDRVDVVTEGTFVEKDRPVKVVAVEGQRVVVREVE | -0.206 |
| HMREEIESVYKTLAVTEIPYIARGNSARLGSGIQTVYDFYRMEGMQVSKILGRNGSVLWLELHG | -0.159 |
| HMKSVILQLHPETLRWIREEAQADMADASVIQLLNDWELGTKKPTLSQVQKLSHETHIPFGYFFLKEKPA | -0.203 |
| HMLDKKKHLEQGRKIIEDQLAKYKIQPSFDTLKKLSAYYGLNNKEQLYAQVGMGFLELENLDEILQ | -0.347 |
| HMALSVRNRMSDLLRMLGDGEFHRFENLFSLEEGRHGIVVTFLAMLELAKEQLVEISQGESLAPIYLKSLA | -0.403 |
| HMETVQTGTVKVSNSLNVRSGAGTNYSVLGSLSNGAKVEIVGTSGSWYKIKYGSGYGYVSKDYVTVS | -0.28 |
| HMQTTQQLIRNLRLKQAATLLADKRHSITEVATLTGFTHPTYFATAFREMFGVSPSEYMEQHI | 0.126 |
| HMPYNNLADAPASWKKLDDTPLTLGQVNWIAKIYDALVAKGMEKGAAAGTAISRFKKSFKVADGKWVQV | 0.173 |
| HMATYETEVISGVNLRSAPNTSASVYRLLSKGEDIHVIQKVNDYWLKVQTKDGKIGYISASSKYTNYIA | -0.132 |
| HMIKILGSAYRHGLDDDDILRAWNYHIQEFFEGEDPEKIVRLGFDTHGRLLEIGGEIYPGGGEKIFHAM | -0.719 |
| HMKSLAQELVDALGDRIRDGRLKVGDKLPSEAAIEAQYGVSRTVVREAISRLQAAGLVVTRHGIGTFIVGI | ≥ 0.43 |
| HMPKSKTPDDAAEEFRTAFSALDMDGKVTVKDMAEYMGVIDKTVYARLKKMGDEFTLDKGVITKKT | -0.084 |
| HMSVYIGVDQAKSIAAEHAGLSNSAVTFSKAKLENDDGMTVYEVEFFYQGTEYDYKIDASTGSILEYDLDR | -0.0157 |
| HMELVIGESLAVELLRPGKEDGQALGYLPDGSMVVVNNGRAFVGKRVTAEIIGVIRSAGGKMVFSNLLGE | -2 |
| HMRLPNHYGSVVKLSGKRRRPFMVRGGVYGYDDRGYPQYVIVGYTETREQGLTMLAEYNRNP | -0.319 |
| HMATPTMEDYIEVIYSLVKTKGYARSADIAEKLEVYPSTVTKMLKKLDAEGYIVYEKYRGIALTDIGKKMG | -0.189 |
| HMVNYKEILRLSAEGNSQRQIAAGSGNSRNTVIEVLEAARARGITWPLDEPVTNEQLEAILFPNRY | ≥ 0.43 |
| HMPTERLSMRRIRELLRLRFEVGLSTRLIATALGISKGAVGDYLQRAQVAGLGWPLPENLNDAALERRLFP | ≥ 0.43 |
| HMVFLPDEIFRLKVIKAGEGPEQGVGYLDDGTMVVIEGARDRIGDELEVRVTSTLQTNAGKMIFTKFE | -2.12 |
| HMGDYERVPEYKGKLTSDLTMEDSQKFAFRFIWQNSDEDEGKIIDQDPPAGKSVAKGSEIVLYVSNG | -0.0695 |
| HMLRDTTLLHIDSIVRDGSTAMANITVRDEGTDLEFPLQLRMERGDMGWQVVRIVNYRAYLEAVQKA | -0.59 |
| HMSQPYFELAAADMEALRNALSTIREIESVVLSGKIFHVEVREDLDPGTMNKLAFERGITLTHLVKKKN | -1.06 |
| HMSTSEQVYTTDKVNVRREADTSSEKLGSLEKGTAISRTGTEGEWSVVNYGGVTGYIKTEFLTTEQPQ | 0.224 |
